This note sets out measurements from patent CN117700556A (SUZHOU ABCARTA MEDICAL TECH CO LTD; XIANGYA HOSPITAL …, dated 2024).

Experiment [1] concerns the target T1, FRα抗原(SEQ ID NO:1)合成多肽.
T1 construct: KLH-coupled for immunisation; also called FRα的多肽
T1 peptide: RIAWARTELLNV
Description: ELISA screening of hybridoma clones on the SEQ ID NO:1 peptide. In general terms: ELISA stands for enzyme-linked immunosorbent assay.

The target in experiment [2] is T2, 叶酸受体α(Folate receptor alpha，FRα) (human, UniProt P15328 25-234).
T2 construct: whole, on cells; also called FRα蛋白
T2 sequence (P15328 25-234): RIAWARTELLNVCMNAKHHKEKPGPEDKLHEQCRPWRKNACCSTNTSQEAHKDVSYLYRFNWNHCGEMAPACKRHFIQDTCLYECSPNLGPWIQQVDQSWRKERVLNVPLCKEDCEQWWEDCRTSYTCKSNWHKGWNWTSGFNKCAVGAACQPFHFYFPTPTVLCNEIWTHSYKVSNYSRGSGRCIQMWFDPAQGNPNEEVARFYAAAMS
Description: immunohistochemistry on FFPE ovarian and breast cancer tissue, antibody at 0.5 μg/mL.

B1: 436I6G8抗FRα小鼠单克隆抗体 (antibody, V domains shown)
VH: EVQLQQSGVELVRSGASVKVSCTPSGFNIKDYFINWVKQRPEQGLEWIGWIDPENGDTEYAPKFQGKATMTADTSSNTAYLQLSSLTSEDTAVYYCYAERVVYWGQGTLITVSA
VL: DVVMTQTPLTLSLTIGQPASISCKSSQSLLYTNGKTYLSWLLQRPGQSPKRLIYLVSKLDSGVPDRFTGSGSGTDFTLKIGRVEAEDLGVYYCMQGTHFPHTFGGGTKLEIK
notes: Variable regions were cloned into InvivoGen pFUSE-CHIg-mG1 and pFUSE2-CLIg-mK (mouse IgG1 heavy, mouse kappa light constant regions); also called 436I6G8克隆的FRα小鼠单克隆抗体; 436I6G8抗FRα单克隆抗体
Take B1: the binding result in experiment [1] and in experiment [2] was “binds” throughout.
